{
  "source": "patent US20260049140A1",
  "about": "(JANUX THERAPEUTICS, published 2026)",
  "binders": {"B1": {"name": "Peptide-11 (peptide)", "peptide": "GSACLGPEWEVCPY", "modifications": "cysteine pairing not given here; also: biotinylated when captured in ELISA", "notes": "also called 1596"}, "B2": {"name": "TCE-26 (anti-CD3 scFv F240A; anti-TROP2 HC wt) (bispecific antibody)", "light": "DIQLTQSPSSLSASVGDRVSITCKASQDVSIAVAWYQQKPGKAPKLLIYSASYRYTGVPDRFSGSGSGTDFTLTISSLQPEDFAVYYCQQHYITPLTFGAGTKVEIKRTVAAPSVFIFPPSDEQLKSGTASVVCLLNNFYPREAKVQWKVDNALQSGNSQESVTEQDSKDSTYSLSSTLTLSKADYEKHKVYACEVTHQGLSSPVTKSFNRGEC", "heavy": "not shown", "notes": "scFv-Fab; the entry already carries the mutation; also called 3098"}, "B3": {"name": "TCE-33 (anti-CD3 scFv, several mutations; anti-TROP2 (F108A) HC) (bispecific antibody)", "light": "B2 light", "heavy": "EVQLVESGGGLVQPGGSLKLSCAASGFTFNKYAMNWVRQASGKGLEWVGRIRSKYNNYATYYADSVKDRFTISRDDSKNTAYLQMNSLKTEDTAVYYCVRHGNFGNSYISYWAYWGQGTLVTVSSGGGGSGGGGSGGGGSQTVVTQEPSFSVSPGGTVTLTCRSSTGAVTSGNYANWVQQTPGQAPRGLIGGTKFLAPGVPDRFSGSILGNKAALTITGAQADDESDYYCVLWYSNRWVFGGGTKLTVLGGGGSQVQLQQSGSELKKPGASVKVSCKASGYTFTNYGMNWVKQAPGQGLKWMGWINTYTGEPTYTDDFKGRFAFSLDTSVSTAYLQISSLKADDTAVYFCARGGFGSSYWYADVWGQGSLVTVSSASTKGPSVFPLAPSSKSTSGGTAALGCLVKDYFPEPVTVSWNSGALTSGVHTFPAVLQSSGLYSLSSVVTVPSSSLGTQTYICNVNHKPSNTKVDKKVEPKSC", "notes": "scFv-Fab; the entry already carries the mutations"}, "B4": {"name": "Peptide-13 (peptide)", "peptide": "YLCGPDTDETLACY", "modifications": "cysteine pairing not given here; also: biotinylated, site not given here"}},
  "key": {"TCE-24": {"biological_target": "T1, TCE-24", "T1 construct": "anti-CD3 scFv W238A; anti-TROP2 Fab wt; also called 3096", "test": "competition ELISA, peptide titrated vs TCE binding to captured CD3"}, "TCE-19": {"biological_target": "T2, TCE-19", "T2 construct": "anti-CD3 scFv W233A; anti-TROP2 Fab wt; also called 3091", "test": "competition ELISA, peptide titrated vs TCE binding to captured CD3"}, "TCE-15": {"biological_target": "T3, TCE-15", "T3 construct": "anti-CD3 scFv W112A; anti-TROP2 Fab wt; also called 3087", "test": "competition ELISA, peptide titrated vs TCE binding to captured CD3"}, "human CD3ε-biotin [1]": {"biological_target": "T4, human CD3ε-biotin (human, UniProt P07766 23-126, limits assumed, biotinylated (site not stated))", "T4 construct": "also called CD3E-bio; CD3E-biotin", "test": "ELISA, biotinylated CD3ε on neutravidin plates"}, "human CD3ε-biotin [2]": {"biological_target": "T4, human CD3ε-biotin", "test": "BLI (Octet), summary table"}, "human TROP2-biotin": {"biological_target": "T5, human TROP2-biotin (human, UniProt P09758 27-274, limits assumed, biotinylated (site not stated))", "T5 construct": "also called hTROP2-Biotin; Biotinylated TROP2", "T5 sequence (looked up)": "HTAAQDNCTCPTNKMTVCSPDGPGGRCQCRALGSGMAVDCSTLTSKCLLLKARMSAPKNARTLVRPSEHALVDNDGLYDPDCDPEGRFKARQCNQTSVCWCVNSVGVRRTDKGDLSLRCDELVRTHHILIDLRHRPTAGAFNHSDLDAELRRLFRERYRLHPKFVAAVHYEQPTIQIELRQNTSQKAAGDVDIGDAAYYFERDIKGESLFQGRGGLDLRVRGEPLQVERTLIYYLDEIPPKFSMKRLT", "test": "BLI (Octet), human TROP2-biotin 10 nM on sensor, 50 nM TCE"}, "human CD3ε-biotin [3]": {"biological_target": "T4, human CD3ε-biotin", "test": "BLI (Octet), human CD3-biotin 10 nM on sensor, 50 nM TCE"}, "TCE-33": {"biological_target": "T6, TCE-33", "T6 construct": "anti-CD3 scFv with P41S; E227D set of mutations; anti-TROP2 Fab F108A", "test": "competition ELISA, peptide titrated vs TCE binding to captured CD3"}, "TCE-29": {"biological_target": "T7, TCE-29", "T7 construct": "anti-CD3 scFv wt; anti-TROP2 Fab F108A", "test": "competition ELISA, peptide titrated vs TCE binding to captured CD3"}, "TCE-30": {"biological_target": "T8, TCE-30", "T8 construct": "anti-CD3 scFv H101A; anti-TROP2 Fab F108A", "test": "competition ELISA, peptide titrated vs TCE binding to captured CD3"}, "TCE-32": {"biological_target": "T9, TCE-32", "T9 construct": "anti-CD3 scFv F240A; anti-TROP2 Fab F108A", "test": "competition ELISA, peptide titrated vs TCE binding to captured CD3"}},
  "note": "Ends that are not written are not given here.",
  "data": [
    {"binder": "B1", "values": [
      {"measurement": "IC50", "setting": "TCE-24", "result": "> 100", "unit": "µM"},
      {"measurement": "IC50", "setting": "TCE-19", "result": "> 100", "unit": "µM"},
      {"measurement": "IC50", "setting": "TCE-15", "result": "> 100", "unit": "µM"}
    ]},
    {"binder": "B2", "values": [
      {"measurement": "EC50", "setting": "human CD3ε-biotin [1]", "result": 0.0006, "unit": "µM"},
      {"measurement": "CD3 t1/2", "setting": "human CD3ε-biotin [2]", "result": 39, "unit": "s"}
    ]},
    {"binder": "B3", "values": [
      {"measurement": "Kd", "setting": "human TROP2-biotin", "result": 0.00122, "unit": "µM"},
      {"measurement": "Kd", "setting": "human CD3ε-biotin [3]", "result": 0.000467, "unit": "µM"}
    ]},
    {"binder": "B4", "values": [
      {"measurement": "IC50", "setting": "TCE-33", "result": "> 100", "unit": "µM"},
      {"measurement": "IC50", "setting": "TCE-29", "result": "> 100", "unit": "µM"},
      {"measurement": "IC50", "setting": "TCE-30", "result": "> 100", "unit": "µM"},
      {"measurement": "IC50", "setting": "TCE-32", "result": "> 100", "unit": "µM"}
    ]}
  ]
}
